Test results published in patent US20170015742A1 (published 2017).
Where a chain is given by its changes, count along the chain named. Numbers in names are those of the source.

B1: 4G8.3-SL-9E8.4 (g) (PR-1572105) (bispecific antibody, human IgG1, kappa, L234A L235A)
heavy: EVQLVQSGSELKKPGASVKVSCKASGYTFTNYGMYWVRQAPGQGLEWMGWINTETGKPTYADDFKGRFVFSLDTSVSTAYLQISSLKAEDTAVYYCARTNYYYRSYIFYFDYWGQGTMVTVSSASTKGPEVTLRESGPALVKPTQTLTLTCTFSGFSLSTYGMGVGWIRQPPGKALEWLANIWWDDDKYYNPSLKNRLTISKDTSKNQVVLTMTNMDPVDTATYYCARIESIGTTYSFDYWGQGTMVTVSSASTKGPSVFPLAPSSKSTSGGTAALGCLVKDYFPEPVTVSWNSGALTSGVHTFPAVLQSSGLYSLSSVVTVPSSSLGTQTYICNVNHKPSNTKVDKKVEPKSCDKTHTCPPCPAPEAAGGPSVFLFPPKPKDTLMISRTPEVTCVVVDVSHEDPEVKFNWYVDGVEVHNAKTKPREEQYNSTYRVVSVLTVLHQDWLNGKEYKCKVSNKALPAPIEKTISKAKGQPREPQVYTLPPSREEMTKNQVSLTCLVKGFYPSDIAVEWESNGQPENNYKTTPPVLDSDGSFFLYSKLTVDKSRWQQGNVFSCSVMHEALHNAYTQKSLSLSPGK
light: DTVLTQSPATLSLSPGERATLSCRASESVSTHMHWYQQKPGQAPRLLIYGASNLESGVPARFSGSGSGTDFTLTISSLEPEDFAVYFCQQSWNDPFTFGQGTKLEIKRTVAAPSVFIFPPEFVLTQSPGTLSLSPGERATLSCERSSGDIGDSYVSWYQQKPGQAPRLVIYADDQRPSGIPDRFSGSGSGTDFTLTISRLEPEDFAVYYCQSYDINIDIVFGGGTKVEIKRTVAAPSVFIFPPSDEQLKSGTASVVCLLNNFYPREAKVQWKVDNALQSGNSQESVTEQDSKDSTYSLSSTLTLSKADYEKHKVYACEVTHQGLSSPVTKSFNRGEC
notes: DVD-Ig; outer hBDB-4G8.3 (VEGF), linkers HG-short/LK-long, inner hBDI-9E8.4 (PDGF); human IgG1 L234A, L235A, H435A / kappa; also called hu VEGF 4G8.3-SL-hu PDGF 9E8.4 (germline) [hu IgG1/k]; LALA H435A; DVD-Ig-3
B2: DVD3906 (PR-1565035) (bispecific antibody, human IgG1, kappa, L234A L235A)
heavy: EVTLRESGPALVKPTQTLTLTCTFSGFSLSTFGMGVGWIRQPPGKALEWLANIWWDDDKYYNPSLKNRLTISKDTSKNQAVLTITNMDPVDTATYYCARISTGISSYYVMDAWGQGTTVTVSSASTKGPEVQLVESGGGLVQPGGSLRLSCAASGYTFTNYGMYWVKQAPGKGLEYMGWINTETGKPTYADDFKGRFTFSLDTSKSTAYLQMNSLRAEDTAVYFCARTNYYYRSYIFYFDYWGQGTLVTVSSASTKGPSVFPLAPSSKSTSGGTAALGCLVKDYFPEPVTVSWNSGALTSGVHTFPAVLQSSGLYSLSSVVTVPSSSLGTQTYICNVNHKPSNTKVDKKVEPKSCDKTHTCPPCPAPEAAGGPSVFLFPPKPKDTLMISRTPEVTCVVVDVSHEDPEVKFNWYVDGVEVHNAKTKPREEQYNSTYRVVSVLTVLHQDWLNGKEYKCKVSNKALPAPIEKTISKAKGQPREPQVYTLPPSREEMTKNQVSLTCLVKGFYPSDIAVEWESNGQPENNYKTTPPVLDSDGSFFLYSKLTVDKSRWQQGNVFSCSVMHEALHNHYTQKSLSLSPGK
light: DFQLTQSPSSLSASVGDRVTITCERSSGDIGDTYVSWYQQKPGKAPKNVIYGNDQRPSGVPSRFSGSGSGNSATLTISSLQPEDFATYFCQSYDSDIDIVFGQGTKVEIKGTVAAPSVFIFPPDTQLTQSPSSLSASVGDRVTISCRASESVSTHMHWYQQKPGKAPKLLIYGASNLESGVPSRFSGSGSGTDFTLTISSLQPEDFATYFCQQSWNDPFTFGQGTKVEIKRTVAAPSVFIFPPSDEQLKSGTASVVCLLNNFYPREAKVQWKVDNALQSGNSQESVTEQDSKDSTYSLSSTLTLSKADYEKHKVYACEVTHQGLSSPVTKSFNRGEC
notes: DVD-Ig; linkers HG-short/LK-long, inner hBDB-4G8.15 (VEGF); human IgG1 L234A, L235A / kappa
B3: DVD3904 (PR-1565031) (bispecific antibody, human IgG1, kappa, L234A L235A)
heavy: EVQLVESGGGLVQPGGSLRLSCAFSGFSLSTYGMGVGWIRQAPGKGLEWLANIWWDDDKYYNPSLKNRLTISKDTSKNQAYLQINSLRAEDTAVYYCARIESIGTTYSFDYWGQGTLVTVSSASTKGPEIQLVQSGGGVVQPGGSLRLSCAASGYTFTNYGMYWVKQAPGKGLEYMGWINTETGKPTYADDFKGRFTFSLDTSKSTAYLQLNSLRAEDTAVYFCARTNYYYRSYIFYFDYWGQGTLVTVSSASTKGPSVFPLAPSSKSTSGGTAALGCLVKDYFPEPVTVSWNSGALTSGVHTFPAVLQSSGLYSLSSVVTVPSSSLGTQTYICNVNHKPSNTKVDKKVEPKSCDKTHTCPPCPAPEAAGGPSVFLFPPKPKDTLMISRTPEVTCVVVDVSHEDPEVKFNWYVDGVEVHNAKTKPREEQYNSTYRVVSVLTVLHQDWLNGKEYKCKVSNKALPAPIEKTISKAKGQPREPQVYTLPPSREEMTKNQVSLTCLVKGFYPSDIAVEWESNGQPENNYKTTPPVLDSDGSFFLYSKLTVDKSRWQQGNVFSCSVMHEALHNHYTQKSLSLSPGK
light: DFQLTQSPSSLSASVGDRVTITCERSSGDIGDSYVSWYQQKPGKAPKNVIYADDQRPSGVPSRFSGSGSGNSASLTISSLQPEDFATYFCQSYDINIDIVFGQGTKVEIKGTVAAPSVFIFPPDTVLTQSPSTLSASPGERATISCRASESVSTHMHWYQQKPGQAPKLLIYGASNLESGVPSRFSGSRSGTDFTLTISSLQPEDFAVYFCQQSWNDPFTFGQGTKVEIKRTVAAPSVFIFPPSDEQLKSGTASVVCLLNNFYPREAKVQWKVDNALQSGNSQESVTEQDSKDSTYSLSSTLTLSKADYEKHKVYACEVTHQGLSSPVTKSFNRGEC
notes: DVD-Ig; linkers HG-short/LK-long, inner hBDB-4G8.14 (VEGF); human IgG1 L234A, L235A / kappa
B4: DVD3905 (PR-1565032) (bispecific antibody, human IgG1, kappa, L234A L235A)
heavy: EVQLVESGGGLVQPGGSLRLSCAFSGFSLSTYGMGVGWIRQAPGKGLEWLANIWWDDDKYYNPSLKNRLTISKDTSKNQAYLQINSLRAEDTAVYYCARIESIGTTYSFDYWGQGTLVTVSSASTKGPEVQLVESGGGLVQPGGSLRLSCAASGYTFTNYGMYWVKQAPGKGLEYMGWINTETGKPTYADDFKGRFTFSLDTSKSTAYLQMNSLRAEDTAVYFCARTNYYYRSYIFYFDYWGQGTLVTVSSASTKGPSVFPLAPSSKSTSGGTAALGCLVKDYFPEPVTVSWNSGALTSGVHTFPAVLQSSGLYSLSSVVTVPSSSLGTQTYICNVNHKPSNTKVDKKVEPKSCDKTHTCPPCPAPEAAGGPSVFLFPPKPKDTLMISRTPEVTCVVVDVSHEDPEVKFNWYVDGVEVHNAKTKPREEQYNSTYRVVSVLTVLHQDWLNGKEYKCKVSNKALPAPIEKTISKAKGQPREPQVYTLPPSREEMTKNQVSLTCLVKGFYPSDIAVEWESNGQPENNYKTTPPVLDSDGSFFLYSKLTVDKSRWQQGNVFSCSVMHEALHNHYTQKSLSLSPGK
light: B2 light with T33S, G52A, N53D, T74S, S95I, D96N
notes: DVD-Ig; outer hBDI-9E8.12 (PDGF), linkers HG-short/LK-long, inner hBDB-4G8.15 (VEGF); human IgG1 L234A, L235A / kappa
B5: 4G8.3-GS(11)-9E8.4 (g) (PR-1572103) (bispecific antibody, human IgG1, kappa, L234A L235A)
heavy: EVQLVQSGSELKKPGASVKVSCKASGYTFTNYGMYWVRQAPGQGLEWMGWINTETGKPTYADDFKGRFVFSLDTSVSTAYLQISSLKAEDTAVYYCARTNYYYRSYIFYFDYWGQGTMVTVSSGGGGSGGGGSEVTLRESGPALVKPTQTLTLTCTFSGFSLSTYGMGVGWIRQPPGKALEWLANIWWDDDKYYNPSLKNRLTISKDTSKNQVVLTMTNMDPVDTATYYCARIESIGTTYSFDYWGQGTMVTVSSASTKGPSVFPLAPSSKSTSGGTAALGCLVKDYFPEPVTVSWNSGALTSGVHTFPAVLQSSGLYSLSSVVTVPSSSLGTQTYICNVNHKPSNTKVDKKVEPKSCDKTHTCPPCPAPEAAGGPSVFLFPPKPKDTLMISRTPEVTCVVVDVSHEDPEVKFNWYVDGVEVHNAKTKPREEQYNSTYRVVSVLTVLHQDWLNGKEYKCKVSNKALPAPIEKTISKAKGQPREPQVYTLPPSREEMTKNQVSLTCLVKGFYPSDIAVEWESNGQPENNYKTTPPVLDSDGSFFLYSKLTVDKSRWQQGNVFSCSVMHEALHNAYTQKSLSLSPGK
light: DTVLTQSPATLSLSPGERATLSCRASESVSTHMHWYQQKPGQAPRLLIYGASNLESGVPARFSGSGSGTDFTLTISSLEPEDFAVYFCQQSWNDPFTFGQGTKLEIKRGGSGGGGSGGEFVLTQSPGTLSLSPGERATLSCERSSGDIGDSYVSWYQQKPGQAPRLVIYADDQRPSGIPDRFSGSGSGTDFTLTISRLEPEDFAVYYCQSYDINIDIVFGGGTKVEIKRTVAAPSVFIFPPSDEQLKSGTASVVCLLNNFYPREAKVQWKVDNALQSGNSQESVTEQDSKDSTYSLSSTLTLSKADYEKHKVYACEVTHQGLSSPVTKSFNRGEC
notes: DVD-Ig; outer hBDB-4G8.3 (VEGF), linkers GS-H10/GS-L11, inner hBDI-9E8.4 (PDGF); human IgG1 L234A, L235A, H435A / kappa
B6: 4G8.3-LS-9E8.4 (PR-1564013) (bispecific antibody, human IgG1, kappa, L234A L235A)
heavy: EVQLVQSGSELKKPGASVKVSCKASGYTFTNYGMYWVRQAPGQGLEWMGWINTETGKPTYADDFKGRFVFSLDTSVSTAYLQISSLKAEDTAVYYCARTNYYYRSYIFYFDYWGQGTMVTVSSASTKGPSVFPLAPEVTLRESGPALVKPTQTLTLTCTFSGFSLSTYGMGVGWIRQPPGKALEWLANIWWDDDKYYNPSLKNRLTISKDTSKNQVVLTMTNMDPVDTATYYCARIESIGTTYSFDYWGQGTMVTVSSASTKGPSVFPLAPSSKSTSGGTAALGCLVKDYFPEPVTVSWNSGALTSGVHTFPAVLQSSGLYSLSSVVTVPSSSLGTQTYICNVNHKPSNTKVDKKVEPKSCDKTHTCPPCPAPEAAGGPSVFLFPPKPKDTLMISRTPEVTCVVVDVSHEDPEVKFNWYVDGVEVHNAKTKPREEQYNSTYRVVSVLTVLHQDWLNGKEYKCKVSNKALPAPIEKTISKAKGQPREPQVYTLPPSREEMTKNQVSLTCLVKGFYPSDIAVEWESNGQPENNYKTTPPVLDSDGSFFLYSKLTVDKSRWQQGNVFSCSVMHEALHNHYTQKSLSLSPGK
light: DTVLTQSPATLSLSPGERATLSCRASESVSTHMHWYQQKPGQAPRLLIYGASNLESGVPARFSGSGSGTDFTLTISSLEPEDFAVYFCQQSWNDPFTFGQGTKLEIKRTVAAPEFVLTQSPGTLSLSPGERATLSCERSSGDIGDSYVSWYQQKPGQAPRLVIYADDQRPSGIPDRFSGSGSGTDFTLTISRLEPEDFAVYYCQSYDINIDIVFGGGTKVEIKGTVAAPSVFIFPPSDEQLKSGTASVVCLLNNFYPREAKVQWKVDNALQSGNSQESVTEQDSKDSTYSLSSTLTLSKADYEKHKVYACEVTHQGLSSPVTKSFNRGEC
notes: DVD-Ig; outer hBDB-4G8.3 (VEGF), linkers HG-long/LK-short, inner hBDI-9E8.4 (PDGF); human IgG1 L234A, L235A / kappa

Target: VEGF-A (UniProt P15692-4 27-191, limits assumed)
Sequence (P15692 other isoform, or with tags, fused parts or gaps limits assumed): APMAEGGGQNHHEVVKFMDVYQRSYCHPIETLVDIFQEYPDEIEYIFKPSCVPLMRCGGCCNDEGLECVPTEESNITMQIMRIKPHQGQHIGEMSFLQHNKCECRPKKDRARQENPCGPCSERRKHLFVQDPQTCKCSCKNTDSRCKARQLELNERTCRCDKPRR
Test: SPR (Biacore), DVD-Ig captured by anti-human Fc, antigen in flow
Procedure: (§1) For example, approximately 9000 RU of goat anti-human Fc specific polyclonal antibody (Thermo Fisher Scientific Inc., Rockford, Ill.) diluted in 10 mM sodium acetate (pH 4.5) is directly immobilized across a CM5 research grade biosensor chip using a standard amine coupling kit according to manufacturer's instructions and procedures at 25 μg/ml. Unreacted moieties on the biosensor surface were blocked with ethanolamine. For kinetic analysis, rate equations derived from the 1:1 Langmuir binding model were fitted simultaneously to multiple antigen injections (using global fit analysis) with the use of Scrubber 2 (BioLogic Software), Biacore Biaevaluation 4.0.1 software or Biacore T100 Evaluation software. Purified antibodies or DVD-Ig molecules were diluted in running buffer for capture across goat anti-human Fc reaction surfaces. Antibodies or DVD-Ig molecules to be captured as a ligand (1 μg/ml) were injected over reaction matrices at a flow rate of 10 μl/minute. During the assay, all measurements were referenced against the capture surface alone (i.e., with no captured antibody or DVD-Ig molecule). […] The equilibrium dissociation constant KD (M) of the reaction between antibodies and the target antigen was then calculated from the kinetic rate constants by the following formula: KD=Koff/Kₒₙ. Binding was recorded as a function of time and kinetic rate constants were calculated.

In order of rising Kd:
1. B1  0.011 nM
2. B5  0.012 nM
3. B6  0.012 nM
4. B4  0.094 nM
5. B2  0.1 nM
6. B3  0.19 nM

In order of rising kon:
1. B3  610000 M⁻¹ s⁻¹
2. B2  920000 M⁻¹ s⁻¹
3. B4  1.1e+06 M⁻¹ s⁻¹
4. B6  3.1e+06 M⁻¹ s⁻¹
5. B1  5.6e+06 M⁻¹ s⁻¹
6. B5  6.3e+06 M⁻¹ s⁻¹

Target: PDGF-BB (UniProt P01127 82-190)
Sequence (P01127 82-190): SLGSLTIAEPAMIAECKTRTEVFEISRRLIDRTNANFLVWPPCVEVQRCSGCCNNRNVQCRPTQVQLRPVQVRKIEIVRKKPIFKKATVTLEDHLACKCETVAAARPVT
Test: as above
Procedure: as §1

In order of falling Kd:
1. B2  0.72 nM
2. B4  0.18 nM
3. B3  0.09 nM
4. B1  0.013 nM
5. B5  0.013 nM
6. B6  0.0086 nM

In order of falling kon:
1. B6  1.7e+07 M⁻¹ s⁻¹
2. B5  1.4e+07 M⁻¹ s⁻¹
3. B1  1.3e+07 M⁻¹ s⁻¹
4. B2  1e+07 M⁻¹ s⁻¹
5. B3  1e+07 M⁻¹ s⁻¹
6. B4  1e+07 M⁻¹ s⁻¹
